In patent US9102755B2, “Highly stabilized epidermal growth factor mutants” (PnP Biopharm Co., Ltd., priority 2013, dated 2015):
Entries after “also recorded” stand apart in the source; their conditions may differ.

What was measured:
[1] = Structure and thermal stability (Tm) by circular dichroism; assay type: physicochemical; conditions: 0.1 mg/ml; for Structure change: circular dichroism 190-250 nm, 20 mM sodium phosphate pH 5.5, 20° C., versus wild-type EGF; for Tm (melting temperature): circular dichroism, 20° C. to 95° C. at 1° C./min
Protocol: The structure and thermal stability of the purified EGF mutant were measured through a circular dichroism analysis using a J-810 spectrometer (JASCO). As the wild-type EGF, the purified EGF prepared in Example 2 was used. In order to analyze the structure, each EGF was dissolved in 20 mM sodium phosphate (pH 5.5) to be uniformly a final concentration of 0.1 mg/ml. And then, the dissolved EGF solution was added to 0.1 cm cell, and then its structure was analyzed under the conditions of, as 190 nm to 250 nm region, band width 1 nm, response 0.25 sec, data pitch 0.1 nm, scanning speed 20 nm/min, cell length 1 cm, accumulation 8 times, and a temperature of 20° C.
In order to analyze the thermal stability, a wavelength of 200 nm was determined through a comparison analysis of far-UV at the Tm (melting temperature) of 20° C. and 95° C., and progressed in a concentration of 0.1 mg/ml in 0.1 cm cell. As the conditions, it was measured at 20° C. to 95° C. under condition of 1° C./min.
The structure is changed at the band of about 195 nm when generating a folding-unfolding phenomenon. Using it, the melting temperature (Tm) was measured in the range of 20 to 95° C., and thus the accurate Tm value was analyzed. As a result, as for the structure change, most mutants had the similar structure as the wild-type EGF, and thus there were few changes. […] It can be confirmed that the thermal stabilities of M2 and M3 were improved by 87° C.

[2] = Circular dichroism after incubation at 60° C.; assay type: physicochemical; conditions: for Percentage to wild-type EGF (CD signal value at 200 nm): 0.3 mg/ml, 20 mM sodium phosphate pH 5.5, 60° C., five days
Protocol: The stabilities of wild-type EGF and mutants should be confirmed through being stored at room temperature for a long period of time, but there is a disadvantage in that the time is too long. Therefore, the incubation test was performed at extreme environment for a short period of time. 0.3 mg/ml of each of the wild-type EGF and mutants was dissolved in 20 mM sodium phosphate (pH 5.5), and then subjected to the incubation in a water bath of 60° C. The sampling was performed per 24 hours unit, and then centrifuged at 13000 rpm and 4° C. for 15 minutes to collect the supernatant. The supernatant was diluted with 20 mM sodium phosphate (pH 5.5), and its structure was measured by using a circular dichroism. And then, the supernatant was added to 0.1 cm cell, and its structure was analyzed under the conditions of, in a region of 190 nm to 250 nm, band width 1 nm, response 0.25 sec, data pitch 0.1 nm, scanning speed 20 nm/min, cell length 1 cm, accumulation 8 times, a temperature of 20° C. […] In order to easily confirm such a result, the graph as illustrated in FIG. 3 is used using the ratio of the signal value at a first day to the signal value at 200 nm that has the biggest difference of signals. Table. […] From such a result, it can be confirmed that the EGF mutants prepared in the present invention have excellent thermal stability and solubility.

[3] = Solubility of wild-type and mutant EGFs in 20 mM sodium phosphate (pH 5.5); assay type: physicochemical; conditions: for Solubility: 1 mg in 1 ml 20 mM sodium phosphate pH 5.5, supernatant, Bradford and UV method; for Solubility (Comparison with wild-type %): 20 mM sodium phosphate pH 5.5, relative to wild-type EGF
Protocol: 1 mg of the respective wild-type and mutant EGFs prepared was dissolved in 1 ml of 20 mM sodium phosphate (pH 5.5 that is the similarly pH environment as cosmetics). In order to remove undissolved EGF, the mixture thus obtained was centrifuged and then supernatant was obtained. The concentration of the supernatant thus obtained was measured by using a Bradford method and UV method.

[4] = test system: NIH3T3 cell line; test: Test of cell proliferation after incubation in cosmetic basic essence; assay type: cell-based; conditions: 60° C., 5 days, versus wild-type EGF, FIG. 4
Protocol: And then, the incubated samples were centrifuged to collect supernatants.

Substance	Structure change [1]	Tm (melting temperature) [1]	Percentage to wild-type EGF (CD signal value at 200 nm) [2] [%]	Solubility [3] [µg/mL]	Solubility (Comparison with wild-type %) [3] [%]	Cell proliferation activity after incubation [4]	Tm (melting temperature) ([1]; listed as Wide type EGF)	CD structure signal over time (in words) ([2]; 60° C., 20 mM sodium phosphate pH 5.5, sampling per 24 hours, compared with the mutants, FIG. 3)
B-19-3: EGF mutant, 19th valine substituted with glutamic acid (SEQ ID NO: 68) (NSDSECPLSHDGYCLHDGECMYIEALDKYACNCVVGYIGERCQYRDLKWWELR; not fully specified; Epidermal growth factor; UniProt P01133 971-1023, looked up, variant V19E)	No change	(76° C.)	84.22					
C-25-1: EGF mutant, 25th alanine substituted with serine (SEQ ID NO: 72) (NSDSECPLSHDGYCLHDGVCMYIESLDKYACNCVVGYIGERCQYRDLKWWELR; not fully specified; Epidermal growth factor; UniProt P01133 971-1023, looked up, variant A25S)	No change	(76° C.)	106.38	617.8	122			
D-34-2: EGF mutant, 34th valine substituted with glutamic acid (SEQ ID NO: 76) (NSDSECPLSHDGYCLHDGVCMYIEALDKYACNCEVGYIGERCQYRDLKWWELR; not fully specified; Epidermal growth factor; UniProt P01133 971-1023, looked up, variant V34E)	No change	(76° C.)	111.10					
D-35-6: EGF mutant, 35th valine substituted with glutamic acid (SEQ ID NO: 80) (CNCVEGYIGE)	No change	(76° C.)	100.14					
M3: EGF mutant by fusion of A-8-2, D-38-10, and E-46-2; SEQ ID NO:2 (NSDSECPSSHDGYCLHDGVCMYIEALDKYACNCVVGYCGERCQYRCLKWWELR; not fully specified)	slightly changed; also recorded: Little change			681.7	134	higher cell proliferation activity		
Wild-type EGF: human epidermal growth factor, 53 amino acids, SEQ ID NO:1, produced in E. coli (Example 2) [reference compound]		76 °C	100	507.3	100		(76° C.)	significantly decreased
